# Assay results from patent US20140073563A1.
# B1: FGF21 wild type, Q9NSA1 29-209 (ligand)
# chain: HPIPDSSPLLQPGGQVRQRYLYTDDAQQTEAHLEIREDGTVGGAADQSPESLLQLKALKPGVIQILGVKTSRFLCQRPDGALYGSLHFDPEACSFRELLLEDGYNVYQSEAHGLPLHLPGNKSPHRDPAPRGPARFLPLPGLPPAPPEPPGILAPQPPDVGSSDPLSMVGPSQGRSPSYAS
# Molecular target: human FGFR1c together with human beta-Klotho (KLB) (human), P11362
# Assay: cell-based or functional assay
# Sequence of human FGFR1c together with human beta-Klotho (KLB) (human), P11362 (P11362 22-822, chain 1 of 2): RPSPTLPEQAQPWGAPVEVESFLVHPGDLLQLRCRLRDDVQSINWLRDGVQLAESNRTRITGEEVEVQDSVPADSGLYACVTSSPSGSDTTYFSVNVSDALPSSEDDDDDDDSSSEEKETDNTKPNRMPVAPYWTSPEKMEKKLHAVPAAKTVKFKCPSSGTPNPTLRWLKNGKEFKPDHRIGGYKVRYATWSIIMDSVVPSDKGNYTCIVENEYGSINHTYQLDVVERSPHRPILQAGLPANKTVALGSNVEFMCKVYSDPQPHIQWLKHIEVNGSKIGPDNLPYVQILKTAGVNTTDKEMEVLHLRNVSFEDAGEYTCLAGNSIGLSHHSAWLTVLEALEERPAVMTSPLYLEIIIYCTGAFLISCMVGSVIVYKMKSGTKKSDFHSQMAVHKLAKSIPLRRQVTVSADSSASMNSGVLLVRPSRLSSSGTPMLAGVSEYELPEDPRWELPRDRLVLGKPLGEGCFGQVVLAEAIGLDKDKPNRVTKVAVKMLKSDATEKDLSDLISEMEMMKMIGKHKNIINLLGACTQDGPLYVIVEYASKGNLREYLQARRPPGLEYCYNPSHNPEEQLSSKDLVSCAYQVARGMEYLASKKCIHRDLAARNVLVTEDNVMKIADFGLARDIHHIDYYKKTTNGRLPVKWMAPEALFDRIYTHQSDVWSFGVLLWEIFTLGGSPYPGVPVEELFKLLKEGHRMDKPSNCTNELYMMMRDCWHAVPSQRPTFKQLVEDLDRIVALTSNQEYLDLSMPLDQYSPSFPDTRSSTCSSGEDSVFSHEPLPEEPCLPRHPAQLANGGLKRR
# Sequence of human FGFR1c together with human beta-Klotho (KLB) (human), P11362 (Q86Z14 whole entry, chain 2 of 2, further chain): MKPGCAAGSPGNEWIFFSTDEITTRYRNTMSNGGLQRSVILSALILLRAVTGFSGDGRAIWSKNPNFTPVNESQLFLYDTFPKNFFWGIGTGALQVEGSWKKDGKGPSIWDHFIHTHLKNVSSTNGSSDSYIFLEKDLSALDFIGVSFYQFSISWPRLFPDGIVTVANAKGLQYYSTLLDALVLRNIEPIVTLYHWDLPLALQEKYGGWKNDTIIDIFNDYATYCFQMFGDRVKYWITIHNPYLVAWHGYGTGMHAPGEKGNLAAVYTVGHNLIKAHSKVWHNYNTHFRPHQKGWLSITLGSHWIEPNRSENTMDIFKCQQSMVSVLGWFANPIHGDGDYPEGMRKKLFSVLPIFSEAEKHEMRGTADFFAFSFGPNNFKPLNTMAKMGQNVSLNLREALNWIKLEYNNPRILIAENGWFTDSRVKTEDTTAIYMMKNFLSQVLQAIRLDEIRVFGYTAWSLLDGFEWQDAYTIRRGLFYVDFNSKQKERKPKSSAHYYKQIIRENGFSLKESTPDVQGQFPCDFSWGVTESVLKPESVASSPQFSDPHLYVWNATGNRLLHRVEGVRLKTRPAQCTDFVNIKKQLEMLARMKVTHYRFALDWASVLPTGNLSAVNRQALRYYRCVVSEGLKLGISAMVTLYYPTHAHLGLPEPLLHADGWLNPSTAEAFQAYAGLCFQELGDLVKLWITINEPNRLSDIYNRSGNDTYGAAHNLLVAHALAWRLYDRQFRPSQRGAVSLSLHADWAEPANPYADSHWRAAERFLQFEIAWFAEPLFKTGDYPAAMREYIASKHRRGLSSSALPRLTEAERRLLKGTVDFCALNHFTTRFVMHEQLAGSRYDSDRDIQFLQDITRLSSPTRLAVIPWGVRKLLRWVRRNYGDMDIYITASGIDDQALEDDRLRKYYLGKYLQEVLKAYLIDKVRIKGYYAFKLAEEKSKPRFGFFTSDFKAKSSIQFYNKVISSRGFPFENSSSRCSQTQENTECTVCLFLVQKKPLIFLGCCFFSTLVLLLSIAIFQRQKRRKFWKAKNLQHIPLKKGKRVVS
binder,measurement,value
B1,pERK ICW EC50,0.135 nmol/L
same,pFGFR ICW EC50,4.3 nmol/L
